For the test, the target named is CD91 (human (endogenous in PBMCs)) (UniProt Q07954).
Chain of UniProt Q07954 (Q07954 20-4544): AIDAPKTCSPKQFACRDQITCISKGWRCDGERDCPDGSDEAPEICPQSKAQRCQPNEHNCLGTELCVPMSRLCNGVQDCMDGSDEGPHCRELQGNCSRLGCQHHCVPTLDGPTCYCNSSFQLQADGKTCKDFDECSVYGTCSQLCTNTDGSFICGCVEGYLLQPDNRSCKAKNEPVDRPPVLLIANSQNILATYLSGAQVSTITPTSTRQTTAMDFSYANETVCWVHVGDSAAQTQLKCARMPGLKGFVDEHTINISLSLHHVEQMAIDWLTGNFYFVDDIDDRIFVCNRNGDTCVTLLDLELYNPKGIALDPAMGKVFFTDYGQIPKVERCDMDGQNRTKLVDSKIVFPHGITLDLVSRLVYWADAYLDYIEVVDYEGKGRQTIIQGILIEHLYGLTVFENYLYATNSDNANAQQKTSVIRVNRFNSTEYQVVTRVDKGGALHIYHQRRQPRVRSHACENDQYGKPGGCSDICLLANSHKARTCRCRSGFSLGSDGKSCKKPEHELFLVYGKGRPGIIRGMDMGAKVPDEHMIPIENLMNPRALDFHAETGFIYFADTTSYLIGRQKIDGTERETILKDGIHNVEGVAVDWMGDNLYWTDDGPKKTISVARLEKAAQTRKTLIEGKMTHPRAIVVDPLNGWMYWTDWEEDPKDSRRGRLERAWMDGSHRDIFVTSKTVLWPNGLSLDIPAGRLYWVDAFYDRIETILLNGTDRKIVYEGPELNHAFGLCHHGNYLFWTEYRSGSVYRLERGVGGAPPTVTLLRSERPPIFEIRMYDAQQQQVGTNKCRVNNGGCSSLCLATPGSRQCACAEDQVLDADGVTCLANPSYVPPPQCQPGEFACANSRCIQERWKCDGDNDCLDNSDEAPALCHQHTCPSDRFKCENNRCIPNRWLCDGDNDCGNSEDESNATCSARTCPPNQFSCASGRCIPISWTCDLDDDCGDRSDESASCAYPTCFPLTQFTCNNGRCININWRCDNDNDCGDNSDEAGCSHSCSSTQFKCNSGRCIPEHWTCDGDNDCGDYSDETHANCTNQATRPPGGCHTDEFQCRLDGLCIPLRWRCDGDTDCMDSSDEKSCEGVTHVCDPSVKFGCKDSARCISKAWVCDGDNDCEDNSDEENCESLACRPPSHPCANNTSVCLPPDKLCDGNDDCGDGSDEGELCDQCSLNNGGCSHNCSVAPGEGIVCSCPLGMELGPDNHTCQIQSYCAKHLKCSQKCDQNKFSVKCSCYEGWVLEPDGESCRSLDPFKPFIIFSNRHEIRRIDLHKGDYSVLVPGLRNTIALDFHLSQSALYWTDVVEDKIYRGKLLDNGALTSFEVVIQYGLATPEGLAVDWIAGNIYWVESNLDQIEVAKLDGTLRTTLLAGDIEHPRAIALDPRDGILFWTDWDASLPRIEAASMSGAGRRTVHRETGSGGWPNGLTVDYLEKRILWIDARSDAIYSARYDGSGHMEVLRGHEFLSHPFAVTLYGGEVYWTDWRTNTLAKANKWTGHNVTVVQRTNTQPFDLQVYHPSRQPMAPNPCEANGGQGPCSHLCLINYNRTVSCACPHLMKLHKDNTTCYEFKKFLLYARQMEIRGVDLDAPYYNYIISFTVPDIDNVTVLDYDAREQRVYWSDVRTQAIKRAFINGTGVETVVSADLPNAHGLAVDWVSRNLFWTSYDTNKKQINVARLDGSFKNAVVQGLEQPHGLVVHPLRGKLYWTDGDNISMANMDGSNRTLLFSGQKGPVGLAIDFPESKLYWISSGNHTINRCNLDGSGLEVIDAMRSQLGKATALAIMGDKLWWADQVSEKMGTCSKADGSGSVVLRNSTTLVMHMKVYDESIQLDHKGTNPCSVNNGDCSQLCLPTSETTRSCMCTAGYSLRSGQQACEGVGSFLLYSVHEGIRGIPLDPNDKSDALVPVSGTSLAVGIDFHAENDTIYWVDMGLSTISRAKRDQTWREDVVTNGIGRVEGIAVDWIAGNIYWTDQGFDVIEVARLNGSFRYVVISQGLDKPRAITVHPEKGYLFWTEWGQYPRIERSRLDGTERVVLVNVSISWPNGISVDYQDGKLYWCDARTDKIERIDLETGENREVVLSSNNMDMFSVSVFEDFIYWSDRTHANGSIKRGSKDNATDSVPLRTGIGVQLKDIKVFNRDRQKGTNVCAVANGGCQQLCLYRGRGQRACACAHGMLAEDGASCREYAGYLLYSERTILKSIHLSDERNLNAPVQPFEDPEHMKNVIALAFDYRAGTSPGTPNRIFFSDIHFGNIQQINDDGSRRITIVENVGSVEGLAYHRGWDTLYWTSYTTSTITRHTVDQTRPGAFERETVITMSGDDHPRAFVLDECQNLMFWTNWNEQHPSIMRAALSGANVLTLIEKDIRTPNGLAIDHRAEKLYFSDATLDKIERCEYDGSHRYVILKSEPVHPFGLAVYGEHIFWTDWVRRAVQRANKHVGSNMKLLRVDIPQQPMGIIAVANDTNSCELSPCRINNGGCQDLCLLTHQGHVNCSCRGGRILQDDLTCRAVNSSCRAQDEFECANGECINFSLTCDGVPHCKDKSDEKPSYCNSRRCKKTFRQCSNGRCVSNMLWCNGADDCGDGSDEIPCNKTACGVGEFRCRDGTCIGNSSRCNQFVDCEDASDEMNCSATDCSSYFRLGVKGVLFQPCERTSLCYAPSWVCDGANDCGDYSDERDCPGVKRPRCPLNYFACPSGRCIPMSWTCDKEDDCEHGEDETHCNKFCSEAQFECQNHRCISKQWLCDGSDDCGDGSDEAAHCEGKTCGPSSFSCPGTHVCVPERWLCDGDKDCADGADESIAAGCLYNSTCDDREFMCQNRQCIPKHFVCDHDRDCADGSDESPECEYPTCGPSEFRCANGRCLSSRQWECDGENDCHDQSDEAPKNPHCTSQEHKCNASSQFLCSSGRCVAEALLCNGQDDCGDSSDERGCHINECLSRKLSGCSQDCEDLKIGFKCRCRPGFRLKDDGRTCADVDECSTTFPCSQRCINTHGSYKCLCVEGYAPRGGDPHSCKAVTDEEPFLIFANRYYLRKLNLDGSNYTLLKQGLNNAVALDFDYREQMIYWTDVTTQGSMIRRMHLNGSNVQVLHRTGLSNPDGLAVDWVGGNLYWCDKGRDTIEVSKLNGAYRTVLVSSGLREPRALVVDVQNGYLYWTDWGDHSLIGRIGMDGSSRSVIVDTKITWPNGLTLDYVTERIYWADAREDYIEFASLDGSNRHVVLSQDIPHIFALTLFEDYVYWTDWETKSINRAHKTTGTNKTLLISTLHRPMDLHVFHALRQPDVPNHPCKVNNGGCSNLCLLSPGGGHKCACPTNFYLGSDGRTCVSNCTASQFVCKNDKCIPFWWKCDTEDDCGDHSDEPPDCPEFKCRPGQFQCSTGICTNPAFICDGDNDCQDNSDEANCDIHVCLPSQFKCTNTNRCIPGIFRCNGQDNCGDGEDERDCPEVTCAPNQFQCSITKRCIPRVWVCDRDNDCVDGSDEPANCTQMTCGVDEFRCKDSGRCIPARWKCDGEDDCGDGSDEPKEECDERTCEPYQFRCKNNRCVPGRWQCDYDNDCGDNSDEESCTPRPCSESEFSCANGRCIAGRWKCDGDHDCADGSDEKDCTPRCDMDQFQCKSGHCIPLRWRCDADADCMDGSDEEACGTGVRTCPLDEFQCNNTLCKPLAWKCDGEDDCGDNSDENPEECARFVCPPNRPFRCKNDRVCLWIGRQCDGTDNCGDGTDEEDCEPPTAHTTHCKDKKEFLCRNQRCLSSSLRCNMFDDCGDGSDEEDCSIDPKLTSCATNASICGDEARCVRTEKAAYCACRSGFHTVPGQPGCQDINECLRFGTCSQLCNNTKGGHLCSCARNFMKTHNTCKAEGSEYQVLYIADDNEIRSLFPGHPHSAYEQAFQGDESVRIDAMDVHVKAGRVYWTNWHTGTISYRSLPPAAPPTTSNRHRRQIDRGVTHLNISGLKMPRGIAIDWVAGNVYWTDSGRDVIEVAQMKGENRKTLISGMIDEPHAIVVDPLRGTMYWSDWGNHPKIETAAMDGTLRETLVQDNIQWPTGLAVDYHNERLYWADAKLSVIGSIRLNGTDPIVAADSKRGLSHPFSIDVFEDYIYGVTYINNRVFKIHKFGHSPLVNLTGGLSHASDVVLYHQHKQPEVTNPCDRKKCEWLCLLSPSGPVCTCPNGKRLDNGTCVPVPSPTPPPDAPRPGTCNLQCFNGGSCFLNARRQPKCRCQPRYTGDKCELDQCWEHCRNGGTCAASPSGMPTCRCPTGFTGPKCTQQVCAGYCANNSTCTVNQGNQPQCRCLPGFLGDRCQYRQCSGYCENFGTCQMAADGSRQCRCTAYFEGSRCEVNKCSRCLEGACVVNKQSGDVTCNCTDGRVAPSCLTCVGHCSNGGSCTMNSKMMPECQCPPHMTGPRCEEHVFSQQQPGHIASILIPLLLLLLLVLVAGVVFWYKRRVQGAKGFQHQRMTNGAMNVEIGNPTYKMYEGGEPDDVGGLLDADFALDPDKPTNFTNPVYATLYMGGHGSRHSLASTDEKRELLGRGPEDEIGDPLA

Take “HSP70/CMVpp65(495-503)-peptide complex (from UniProt P0DMV8 1-641)”: the reduction of proliferation of CD8+ T cells (CFSE dilution, 4 days) in PBMCs stimulated with 10 μg/ml HSP70/CMV-PC after 1 h pulse with 500 μg/ml α2-macroglobulin (A2M), the natural ligand of CD91 came to 86.9%.

For the origin of these results see paper PMC3217864.
